Two molecules from paper PMC3680789 can be followed below.

For this data set, the target named is T1, ScPif1 (Saccharomyces cerevisiae, UniProt P07271 40-859).
T1 sequence: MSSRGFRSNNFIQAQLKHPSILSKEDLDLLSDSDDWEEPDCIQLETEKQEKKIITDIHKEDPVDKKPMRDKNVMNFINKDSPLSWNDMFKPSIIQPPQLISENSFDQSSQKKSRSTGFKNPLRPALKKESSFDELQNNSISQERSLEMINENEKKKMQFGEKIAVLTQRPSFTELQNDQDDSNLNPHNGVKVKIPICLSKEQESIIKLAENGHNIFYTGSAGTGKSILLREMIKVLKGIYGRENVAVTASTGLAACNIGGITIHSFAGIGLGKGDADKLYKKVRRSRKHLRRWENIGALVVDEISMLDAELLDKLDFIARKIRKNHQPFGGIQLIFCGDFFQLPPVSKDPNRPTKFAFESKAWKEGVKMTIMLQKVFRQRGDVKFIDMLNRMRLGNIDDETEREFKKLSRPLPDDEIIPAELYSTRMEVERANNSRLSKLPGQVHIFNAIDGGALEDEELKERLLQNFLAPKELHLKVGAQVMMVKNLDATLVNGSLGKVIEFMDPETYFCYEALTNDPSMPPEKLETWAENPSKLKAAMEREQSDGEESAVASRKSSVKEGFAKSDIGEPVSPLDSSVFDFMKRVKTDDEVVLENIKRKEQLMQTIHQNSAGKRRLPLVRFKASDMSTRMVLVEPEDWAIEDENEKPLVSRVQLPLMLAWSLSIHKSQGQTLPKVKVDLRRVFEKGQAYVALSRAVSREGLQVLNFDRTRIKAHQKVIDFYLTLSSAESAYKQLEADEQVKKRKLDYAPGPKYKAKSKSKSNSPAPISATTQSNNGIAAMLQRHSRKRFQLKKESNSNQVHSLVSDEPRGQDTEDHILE
As to the kind of experiment: filter binding.

B1: non-G-rich 20-mer (NG) (ssDNA)
DNA: CAAAGGACCCTTTGTGGATC
For the molecule B1, the Kd came out at 0.2 nM.

B2: G-rich 20-mer (GR) (ssDNA)
DNA: CGGCCCGGCGGTCCGCGGTC
In turn, B2 registered a Kd of 0.04 nM.

The term Kd denotes the constant that tells how readily two partners part at equilibrium.
